Reference: patent US20240002498A1 (TENEOBIO, published 2024)
Positions count from the first letter of the chain named. One block for each molecule: values may come before it.

Assays:
[1] = molecular target: human Folate Receptor Alpha (FOLR1) on cells (human) (UniProt P15328); assay: saturation binding on IGROV-1 cells, bound against free antibody (Scatchard analysis per paragraph 239)
[2] = molecular target: human Folate Receptor Alpha (FOLR1) on cells (human) (UniProt P15328); assay: cell-based or functional assay
[3] = molecular target: T1, human Folate Receptor Alpha (FOLR1) on cells (human, UniProt P15328 25-234); assay: cell binding, CHO cells stably expressing human FOLR1
T1 construct: whole, on cells; Endogenous on IGROV-1, OVCAR-3, SKOV-3, HT-29 cells; transfected on CHO cells; the cell is named under assay; also called FRα; FRa

cyno FOLR1 on CHO cells [4] = molecular target: T2, cyno FOLR1 on CHO cells (cyno (Cynomolgus macaque), UniProt A0A2K5U044 25-234); assay: cell binding, CHO cells stably expressing cyno FOLR1
T2 construct: whole, on cells; also called cyFOLR1

[5] = molecular target: T1, human Folate Receptor Alpha (FOLR1) on …; assay: cell binding, IGROV-1 cells
cyno FOLR1 on CHO cells [6] = molecular target: T2, cyno FOLR1 on CHO cells; assay: flow cytometry, CHO cells stably expressing cyno FOLR1
mouse FOLR1 on CHO cells = molecular target: T3, mouse FOLR1 on CHO cells (mouse, UniProt P35846 25-232); assay: flow cytometry on CHO cells stably expressing mouse FOLR1, MFI fold over background
T3 construct: whole, on cells; also called msFOLR1
Procedure: IGROV-1 cells, OVCAR-3 cells, CHO cells stably expressing human FOLR1, CHO cells stably expressing cyno FOLR1, and CHO cells stably expressing mouse FOLR1 were incubated with increasing amounts of the indicated antibodies, and binding characteristics were analyzed. Data are presented in FIG. 1, panels A-E, as MFI fold over background.

[7] = molecular target: T1, human Folate Receptor Alpha (FOLR1) on …; assay: cell binding, OVCAR-3 cells
[8] = molecular target: T1, human Folate Receptor Alpha (FOLR1) on …; assay: flow cytometry, CHO cells stably expressing human FOLR1
recombinant human FOLR1 = recombinant human FOLR1 (human, UniProt P15328 25-234); assay: BLI, Octet QK-384, recombinant human FOLR1
Procedure: As used herein, the “Kd” or “Kd value” refers to a dissociation constant determined by BioLayer Interferometry, using an Octet QK384 instrument (Fortebio Inc., Menlo Park, CA) in kinetics mode. For example, anti-mouse Fc sensors are loaded with mouse-Fc fused antigen and then dipped into antibody-containing wells to measure concentration dependent association rates (kon). Antibody dissociation rates (koff) are measured in the final step, where the sensors are dipped into wells containing buffer only. The Kd is the ratio of koff/kon. (For further details see, Concepcion, J, et al., Comb Chem High Throughput Screen, 12 (8), 791-800, 2009).
Table 17 summarizes affinity and epitope bin information for anti-FOLR1 heavy chain antibodies (HCAbs). Column 1 indicates the clone ID of the HCAb. Column 2 indicates the affinity of the HCAb to recombinant human FOLR1 as measured by Bio-layer interferometry (BLI) using an Octet QK-384. Column 3 indicates the epitope bin of HCAb as determined by a competition BLI binding experiment using an Octet QK-384.

[9] = molecular target: T4, FOLR3 (folate receptor gamma) (UniProt P41439 23-245, limits assumed); assay: BLI (Octet)
T4 construct: also called FRγ
T4 sequence (P41439 23-245 limits assumed): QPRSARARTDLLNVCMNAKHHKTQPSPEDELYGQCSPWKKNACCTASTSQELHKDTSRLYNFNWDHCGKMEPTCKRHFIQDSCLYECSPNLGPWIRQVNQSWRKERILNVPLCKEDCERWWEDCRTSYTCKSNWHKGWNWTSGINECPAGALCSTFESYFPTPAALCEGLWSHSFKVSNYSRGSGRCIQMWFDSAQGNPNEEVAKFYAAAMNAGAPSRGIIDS

T2 sequence (A0A2K5U044 entry or part of it): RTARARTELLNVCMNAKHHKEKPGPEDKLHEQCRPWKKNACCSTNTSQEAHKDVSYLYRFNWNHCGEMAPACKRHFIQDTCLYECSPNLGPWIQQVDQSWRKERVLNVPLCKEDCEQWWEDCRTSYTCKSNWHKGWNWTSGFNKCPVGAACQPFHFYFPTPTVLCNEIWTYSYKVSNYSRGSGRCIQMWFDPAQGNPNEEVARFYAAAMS
T3 sequence (P35846 25-232): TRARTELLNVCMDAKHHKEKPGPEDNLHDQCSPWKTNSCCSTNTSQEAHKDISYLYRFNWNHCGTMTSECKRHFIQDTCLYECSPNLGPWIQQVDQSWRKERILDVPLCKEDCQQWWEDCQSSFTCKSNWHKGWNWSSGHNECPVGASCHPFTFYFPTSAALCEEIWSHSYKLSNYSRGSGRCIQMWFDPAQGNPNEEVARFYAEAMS
human Folate Receptor Alpha (FOLR1) on cells (human), sequence (P15328 25-234): as the sequence (A0A2K5U044 entry or part of it) above, with T2I, R4W, K37R, P146A, Y171H counted along it
T1 sequence (P15328 25-234): as the sequence (A0A2K5U044 entry or part of it) above, with T2I, R4W, K37R, P146A, Y171H counted along it
recombinant human FOLR1, sequence (P15328 25-234 limits assumed): as the sequence (A0A2K5U044 entry or part of it) above, with T2I, R4W, K37R, P146A, Y171H counted along it

Molecule: TNB-928B, fully human bispecific antibody that binds to FOLR1 (FRα) and CD3
- EC50 (read off the curve) [1]: 6 nM
- EC50 of ex vivo tumor cell lysis (dissociated ovarian tumor sample) [2]: 0.0452 nM
- maximum tumor cell lysis (IGROV-1 cells with human pan T-cells, 48 hours) [2]: 75%

B1: anti-FOLR1 heavy chain antibody (HCAb, UniAb) clone ID 358589 (antibody, V domains shown)
VH: EVQLVESGGGLVQPGGSLRLSCAASGFSFSSYSMKWVRQAPGKGLEWVSYISSSSDTIEYADSVKGRFTISRDNAKNSLYLMNSLRDEDTAVYYCASVGLDFDYRGQGTLVTVSS
notes: Heavy chain-only antibody (no light chain), F18 family
- EC50 [3]: 3.3 nM
- EC50 (cyno FOLR1 on CHO cells [4]): 1.9 nM
- EC50 [5]: 3.7 nM
- fold over background MFI (cyno FOLR1 on CHO cells [6]): 996 fold over background
- binding result (mouse FOLR1 on CHO cells): no binding (tested: 100 nM (log[nM] 2))
- EC50 [7]: 0.9 nM
- fold over background MFI [8]: 1580 fold over background
- Kd (recombinant human FOLR1): 22.3 nM

The remaining molecules from weak to strong by EC50 [3], led by results:

- EC50 [3]: 1.9 nM
- EC50 (cyno FOLR1 on CHO cells [4]): 2.4 nM
- EC50 [5]: 2.6 nM
- fold over background MFI (cyno FOLR1 on CHO cells [6]): 1010 fold over background
- binding result [9]: no binding
- binding result (mouse FOLR1 on CHO cells): no binding (tested: 100 nM (log[nM] 2))
- EC50 [7]: 0.6 nM
- fold over background MFI [8]: 1890 fold over background
- Kd (recombinant human FOLR1): 22.7 nM
B2: anti-FOLR1 heavy chain antibody (HCAb, UniAb) clone ID 358598 (antibody, V domains shown)
VH: EVQLVESGGGLVQPGGSLRLSCAASGFSFSSYSMNWVRQAPGKGLEWVSYITSSSDTIEYADSVKGRFTISRDNAKNSLYLQMNSLRDEDTAVYYCASVGLDFDYRGQGTLVTVSS
notes: as for B1

- EC50 [3]: 1.9 nM
- EC50 (cyno FOLR1 on CHO cells [4]): 2.7 nM
- EC50 [5]: 2.1 nM
- fold over background MFI (cyno FOLR1 on CHO cells [6]): 735 fold over background
- binding result [9]: no binding
- binding result (mouse FOLR1 on CHO cells): no binding (tested: 100 nM (log[nM] 2))
- EC50 [7]: 0.7 nM
- fold over background MFI [8]: 886 fold over background
- Kd (recombinant human FOLR1): 26.8 nM
B3: anti-FOLR1 heavy chain antibody (HCAb, UniAb) clone ID 358614 (antibody, V domains shown)
VH: B2 VH with N35K, T52S, S53R
notes: as for B1
